[ ]: non-standard residue; d: D form. pT = C[C@@H](OP(=O)(O)O)[C@H](N)C(=O)O; pS = N[C@@H](COP(=O)(O)O)C(=O)O
T1: Peptide No. 7, pS396/pS400/pS404, H-GC-RENAKAKTDHGAEIVYK(pS)PVV(pS)GDT(pS)PRHL-OH (human, phosphoserine (pS) at peptide positions 20, 24 and 28 (tau Ser396, Ser400, Ser404))
T1 peptide: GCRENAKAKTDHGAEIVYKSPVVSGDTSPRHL

T2: Peptide No. 4, pT212/pS214, H-GCGSPGTPGSRSR(pT)P(pS)LPTPPTREPK-OH (human, phosphothreonine (pT) at peptide position 14 (tau Thr212); phosphoserine (pS) at peptide position 16 (tau Ser214))
T2 peptide: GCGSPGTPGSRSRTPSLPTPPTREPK

T3: Peptide No. 1, pS46, H-GLKE(pS)PLQT-OH (human, SMILES CC(C)C[C@H](NC(=O)CN)C(=O)N[C@@H](CCCCN)C(=O)N[C@@H](CCC(=O)O)C(=O)N[C@@H](COP(=O)(O)O)C(=O)N1CCC[C@H]1C(=O)N[C@@H](CC(C)C)C(=O)N[C@@H](CCC(N)=O)C(=O)N[C@H](C(=O)O)[C@@H](C)O)
T3 peptide: H-GLKE[pS]PLQT-OH

T4: Peptide No. 2, pS199, H-SGYS(pS)PGSPGC-OH (human, SMILES N[C@@H](CO)C(=O)NCC(=O)N[C@@H](Cc1ccc(O)cc1)C(=O)N[C@@H](CO)C(=O)N[C@@H](COP(=O)(O)O)C(=O)N1CCC[C@H]1C(=O)NCC(=O)N[C@@H](CO)C(=O)N1CCC[C@H]1C(=O)NCC(=O)N[C@@H](CS)C(=O)O)
T4 peptide: H-SGYS[pS]PGSPGC-OH

T5: Peptide No. 8, pS412, H-NV(pS)STGSC-OH (human, SMILES CC(C)[C@H](NC(=O)[C@@H](N)CC(N)=O)C(=O)N[C@@H](COP(=O)(O)O)C(=O)N[C@@H](CO)C(=O)N[C@H](C(=O)NCC(=O)N[C@@H](CO)C(=O)N[C@@H](CS)C(=O)O)[C@@H](C)O)
T5 peptide: H-NV[pS]STGSC-OH

T6: Peptide No. 5, pT217, H-GC-GSRSRTPSLP(pT)PPTREPKKVAVV-OH (human, phosphothreonine (pT) at peptide position 13 (tau Thr217))
T6 peptide: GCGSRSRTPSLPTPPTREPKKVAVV

T7: Peptide No. 6, pT231, H-KVAVVR(pT)PPKSPS-OH (human)
T7 peptide: H-KVAVVR[pT]PPKSPS-OH

T8: Peptide No. 3, pS202, H-SSPG(pS)PGTPC-OH (human, SMILES C[C@@H](O)[C@H](NC(=O)CNC(=O)[C@@H]1CCCN1C(=O)[C@H](COP(=O)(O)O)NC(=O)CNC(=O)[C@@H]1CCCN1C(=O)[C@H](CO)NC(=O)[C@@H](N)CO)C(=O)N1CCC[C@H]1C(=O)N[C@@H](CS)C(=O)O)
T8 peptide: H-SSPG[pS]PGTPC-OH


Assays:
[1] = target: T1, Peptide No. 7, pS396/pS400/pS404, …; experiment: ELISA, coated peptide
Summary of the method: (§1)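 Peptides, or their bovine serum albumin or keyhole limpet hemocyanin conjugates, at 1 μg/mL in cold PBS were coated at 50 μL/well overnight at 4 °C, then blocked with 3% BSA-PBS overnight at 4 °C. Purified antibody at 150 ng/mL in 3% BSA-PBS was bound for 90 minutes at room temperature, followed by alkaline phosphatase-labelled goat anti-human IgG (H+L) (2000-fold, 60 minutes). Binding was read as absorbance at 405 nm (reference 550 nm) after 40 minutes of pNPP development.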

[2] = target: T2, Peptide No. 4, pT212/pS214, …; experiment: ELISA, coated peptide
Summary of the method: as §1

[3] = target: T3, Peptide No. 1, pS46, H-GLKE(pS)PLQT-OH; experiment: ELISA, coated peptide
Summary of the method: as §1

[4] = target: T4, Peptide No. 2, pS199, …; experiment: ELISA, coated peptide
Summary of the method: as §1

[5] = target: T5, Peptide No. 8, pS412, H-NV(pS)STGSC-OH; experiment: ELISA, coated peptide
Summary of the method: as §1

[6] = target: T6, Peptide No. 5, pT217, …; experiment: ELISA, coated peptide
Summary of the method: as §1

[7] = target: T7, Peptide No. 6, pT231, …; experiment: ELISA, coated peptide
Summary of the method: as §1

[8] = target: T8, Peptide No. 3, pS202, H-SSPG(pS)PGTPC-OH; experiment: ELISA, coated peptide
Summary of the method: as §1

[9] = target: T9, His-tagged non-phosphorylated tau protein 4R0N (human, UniProt P10636 2-758); experiment: SPR Biacore T200, antigen immobilized
T9 construct: Produced by Escherichia coli; negative control in SPR; also called ATGen Cat. No. ATGP0795
T9 sequence (P10636 other isoform, or with tags, fused parts or gaps limits assumed): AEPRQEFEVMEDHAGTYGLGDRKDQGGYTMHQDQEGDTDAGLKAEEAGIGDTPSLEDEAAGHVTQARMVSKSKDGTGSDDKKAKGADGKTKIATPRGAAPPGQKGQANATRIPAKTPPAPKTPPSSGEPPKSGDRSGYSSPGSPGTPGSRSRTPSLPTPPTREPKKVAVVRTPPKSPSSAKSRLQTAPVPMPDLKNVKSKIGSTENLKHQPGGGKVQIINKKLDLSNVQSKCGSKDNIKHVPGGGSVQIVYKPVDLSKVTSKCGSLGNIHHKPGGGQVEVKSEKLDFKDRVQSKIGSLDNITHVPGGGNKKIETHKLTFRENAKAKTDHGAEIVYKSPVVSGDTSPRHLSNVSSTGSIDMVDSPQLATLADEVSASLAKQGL
Protocol: The binding affinities of the hyperphosphorylated tau protein 4R2N (hpTau), non-phosphorylated tau protein 4R0N, monophosphorylated tau peptide 1×P, triphosphorylated tau peptide 3×P, and non-phosphorylated tau peptide Non P with each antibody were measured with an SPR system Biacore T200 (GE Healthcare Japan), in accordance with the instruction manual for evaluation attached to the system.
The His-tagged hpTau or Tau proteins were each immobilized on a sensor chip using an HBS-N buffer (code No. BR-1003-69) as the immobilization reaction solution and allowing a nickel chloride solution to react with the NTA sensor chip for bonding Ni to NTA. Subsequently, the sensor chip was activated with a mixed solution of N-ethyl-N′-(3-dimethylaminopropyl)-carbodiimide hydrochloride (1-ethyl-3-(3-dimethylaminopropyl)carbodiimide hydrochloride: EDC) and N-hydroxysuccinimide (NHS). A solution of each of the His-tagged proteins, adjusted to a concentration of 100 to 500 ng/mL with a 4-(2-hydroxyethyl)-1-piperazineethanesulfonic acid (HEPES) buffer (0.01 M HEPES, 150 mM KCl, 2 mM DTT, 1 mM EDTA, pH 7.2), was applied to the sensor chip, whereby the protein was immobilized on the sensor chip through covalent bonds with the Ni-NTA. The remaining active NHS was blocked with ethanolamine, and Ni ions were removed with an EDTA solution (Ni-affinity amine coupling: see International Publication No. WO2005/022156). The antigen peptides (1×P, 3×P, and Non P) were each immobilized on a sensor chip by activating the NTA sensor chip with a mixed solution of N-ethyl-N′-(3-dimethylaminopropyl)-carbodiimide (EDC) hydrochloride and N-hydroxysuccinimide (NHS), and then applying a solution of the antigen peptide diluted with a 10 mM sodium acetate buffer (pH: 4 to 4.5) to 1 to 10 μM to the sensor chip, whereby the peptide was covalently bound to the sensor chip. The remaining active NHS was blocked with ethanolamine. Thus, sensor chips immobilized respectively with the proteins and peptides mentioned above were produced.
A CAPS buffer (pH 10.5) was applied to these sensor chips at 37° C. to stabilize the protein- or peptide-immobilized surfaces of the sensor chips.

Binder | binding result [1] | binding result [2] | binding result [3] | binding result [4] | binding result [5] | binding result [6] | binding result [7] | binding result [8] | binding result [9]
chimeric antibody Ta1505 (antibody, human IgG1, kappa, V domains shown, Mouse Ta1505 variable regions with human IgG1(kappa) constant regions. chim; also called the chimeric antibody; Chimera) VH: EVQLVESGGGLVQPKGSLKLSCAASGFAFNSFALNWVRQAPGKSLEWVVHIRSKTNNYATFYADSVKDRFTVSRDDSQSMVYLQMNNLKTEDTGIYYCVRRGPRDSWFGYWGQGTLVTVSA VL: DILMTQTPLSLPVSLGDQASISCRSSQNIVHSNGNTYLEWYLQKPGQSPKVLIYTVSNRFSGVPDRFSGSGSGTDFTLKISRVEAEDLGVYYCFQGSHLPLTFGGGTKLELKR | no binding (tested: OD value <0.5; antibody 150 ng/mL) | no binding (tested: OD value <0.5; antibody 150 ng/mL) | no binding (tested: OD value <0.5; antibody 150 ng/mL) | no binding (tested: OD value <0.5; antibody 150 ng/mL) | no binding (tested: OD value <0.5; antibody 150 ng/mL) | no binding (tested: OD value <0.5; antibody 150 ng/mL) | no binding (tested: OD value <0.5; antibody 150 ng/mL) | no binding (tested: OD value <0.5; antibody 150 ng/mL) | no binding (tested: 0.2 to 1 nM)
humanized antibody L48H11 (antibody, human IgG1, kappa, V domains shown, VL48/VH11, human IgG1/kappa) VH: EVQLVESGGGLVQPGGSLRLSCAASGFTFSSFALNWVRQAPGKGLEWVGHIRSKTNNYATFYAASVKDRFTVSRDDSQNTAYLQMNSLKTEDTATYYCVRRGPRDSWFGYWGQGTLVTVSS VL: DIVMTQSPLSLPVTLGDPASISCRSSQNIVHSNGNTYLEWYQQKPGQSPQLLIYTVSNRFSGVPDRFSGSGSGTDFTLKISRVEAEDLGVYYCFQGSHLPLTFGGGTKVEIKR | no binding (tested: OD value <0.5; antibody 150 ng/mL) | no binding (tested: OD value <0.5; antibody 150 ng/mL) | no binding (tested: OD value <0.5; antibody 150 ng/mL) | no binding (tested: OD value <0.5; antibody 150 ng/mL) | no binding (tested: OD value <0.5; antibody 150 ng/mL) | no binding (tested: OD value <0.5; antibody 150 ng/mL) | no binding (tested: OD value <0.5; antibody 150 ng/mL) | no binding (tested: OD value <0.5; antibody 150 ng/mL) | no binding (tested: 0.2 to 1 nM)
humanized antibody L15H11 (antibody, human IgG1, kappa, V domains shown, VL15/VH11, human IgG1/kappa) VH: EVQLVESGGGLVQPGGSLRLSCAASGFTFSSFALNWVRQAPGKGLEWVGHIRSKTNNYATFYAASVKDRFTVSRDDSQNTAYLQMNSLKTEDTATYYCVRRGPRDSWFGYWGQGTLVTVSS VL: DIVMTQSPLSLPVTLGEPASISCRSSQSIVHSNGNTYLEWYQQKPGQSPRLLIYTVSNRFSGVPDRFSGSGSGTDFTLKISRVEAEDLGVYYCFQGSHLPLTFGGGTKVEIKR | no binding (tested: OD value <0.5; antibody 150 ng/mL) | no binding (tested: OD value <0.5; antibody 150 ng/mL) | no binding (tested: OD value <0.5; antibody 150 ng/mL) | no binding (tested: OD value <0.5; antibody 150 ng/mL) | no binding (tested: OD value <0.5; antibody 150 ng/mL) | no binding (tested: OD value <0.5; antibody 150 ng/mL) | no binding (tested: OD value <0.5; antibody 150 ng/mL) | no binding (tested: OD value <0.5; antibody 150 ng/mL) | no binding (tested: 0.2 to 1 nM)
humanized antibody L47H64 (antibody, human IgG1, kappa, V domains shown, VL47/VH64, human IgG1/kappa) VH: EVQLVESGGGLVQPGGSLRLSCAASGFTFNSFALNWVRQAPGKGLEWVVHIRSKTNNYATFYAASVKDRFTVSRDDSQNTAYLQMNSLKTEDTATYYCVRRGPRDSWFGYWGQGTLVTVSS VL: DIVMTQSPLSLPVTLGDPASISCRSSQSIVHSNGNTYLEWYQQKPGQSPQRLIYTVSNRFSGVPDRFSGSGSGTDFTLKISRVEAEDLGVYYCFQGSHLPLTFGGGTKVEIKR | no binding (tested: OD value <0.5; antibody 150 ng/mL) | no binding (tested: OD value <0.5; antibody 150 ng/mL) | no binding (tested: OD value <0.5; antibody 150 ng/mL) | no binding (tested: OD value <0.5; antibody 150 ng/mL) | no binding (tested: OD value <0.5; antibody 150 ng/mL) | no binding (tested: OD value <0.5; antibody 150 ng/mL) | no binding (tested: OD value <0.5; antibody 150 ng/mL) | no binding (tested: OD value <0.5; antibody 150 ng/mL) | –
humanized antibody L36H11 (antibody, human IgG1, kappa, V domains shown, VL36/VH11, human IgG1/kappa) VH: EVQLVESGGGLVQPGGSLRLSCAASGFTFSSFALNWVRQAPGKGLEWVGHIRSKTNNYATFYAASVKDRFTVSRDDSQNTAYLQMNSLKTEDTATYYCVRRGPRDSWFGYWGQGTLVTVSS VL: DIVMTQSPLSLPVTLGDPASISCRSSQSIVHSNGNTYLEWYQQKPGQSPQLLIYTVSNRFSGVPDRFSGSGSGTDFTLKISRVEAEDLGVYYCFQGSHLPLTFGGGTKVEIKR | no binding (tested: OD value <0.5; antibody 150 ng/mL) | no binding (tested: OD value <0.5; antibody 150 ng/mL) | no binding (tested: OD value <0.5; antibody 150 ng/mL) | no binding (tested: OD value <0.5; antibody 150 ng/mL) | no binding (tested: OD value <0.5; antibody 150 ng/mL) | no binding (tested: OD value <0.5; antibody 150 ng/mL) | no binding (tested: OD value <0.5; antibody 150 ng/mL) | no binding (tested: OD value <0.5; antibody 150 ng/mL) | no binding (tested: 0.2 to 1 nM)

From US20180346564A1 (TEIJIN PHARMA, published 2018)
